Data published in publication PMC5018835.

B1: Hch1p (N-terminal 6xHis tag), P53834 1-153 (natural protein)
chain: MVVLNPNNWHWVDKNTLPWSKDYLNGKLTSLSTVSSDGKSKIELTQVSSITGDSNVSQRKGKPICYFDLQLSMNVKVTNLDTNKDDEDDDGILADGKLEIPEFMHDESDIPILSQGFDAFDGLVRSEFVPKVVETLLKYQDDLIKEHSKDIQV
B2: Aha1p (full length, N-terminal 6xHis tag), Q12449 1-350 (natural protein)
chain: MVVNNPNNWHWVDKNCIGWAKEYFKQKLVGVEAGSVKDKKYAKIKSVSSIEGDCEVNQRKGKVISLFDLKITVLIEGHVDSKDGSALPFEGSINVPEVAFDSEASSYQFDISIFKETSELSEAKPLIRSELLPKLRQIFQQFGKDLLATHGNDIQVPESQVKSNYTRGNQKSSFTEIKDSASKPKKNALPSSTSTSAPVSSTNKVPQNGSGNSTSIYLEPTFNVPSSELYETFLDKQRILAWTRSAQFFNSGPKLETKEKFELFGGNVISELVSCEKDKKLVFHWKLKDWSAPFNSTIEMTFHESQEFHETKLQVKWTGIPVGEEDRVRANFEEYYVRSIKLTFGFGAVL

Tests used:
[1] = target: Hsp82p:Hsp82p^LL heterodimer (S. cerevisiae), P02829
[2] = target: Hsp82p:Hsp82p^V391E/LL heterodimer (S. cerevisiae), P02829

| inhibition of the ATPase activity of Hsp82p:Hsp82p^LL heterodimers (1 μM + 5 μM) by titrated Hch1p (~16% at 2.5 μM, ~11% at 5 μM, overcome at higher concentrations; Fig. 2C) [1] | apparent affinity (Kapp) from the fit of ATPase stimulation of Hsp82p:Hsp82p^V391E/LL heterodimers (1 μM + 5 μM) against Aha1p concentration (Fig. 3E) [2] | Binder |
| --- | --- | --- |
| 16% | – | B1 |
| – | 0.8 µM | B2 |
